B1: Azoarcus group I ribozyme (parent)
chain: GUGCCUUGCGCCGGGAAACCACGCAAGGGAUGGUGUCAAAUUCGGCGAAACCUAAGCGCCCGCCCGGGCGUAUGGCAACGCCGAGCCAAGCUUCGGCGCCUGCGCCGAUGAAGGUGUAGAGACUAGACGGCACCCACCUAAGGCAAACGCUAUGGUGAAGGCAUAGUCCAGGGAGUGGCGAAAGUCACACAAACCGG

Variants of: B1
Test: reverse-splicing fitness (ratio to wild type); higher = more active; in vitro selection; Mg2+ level not given
How it was run: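 An in vitro group I ribozyme library with randomized positions was T7-transcribed and gel-purified. In triplicate, 10 pmol RNA in EPPS pH 7.5 was reacted with 50 pmoles of a 30-nt RNA substrate for 1 h at 37 °C across several added MgCl2 levels (1–48 mM), then stopped with EDTA. Products were reverse transcribed from a substrate-complementary primer, PCR-amplified and sequenced (HiSeq 4000). Fitness is a variant's read proportion after selection over that before, normalised to wild type.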

Question: Which reverse-splicing fitness does the source give for C82U A111G A120G A145U C150U C169U here?
Answer: 0.00963

Question: Which reverse-splicing fitness does the source give for C82U A111G A120U A145G C150U U176G here?
Answer: 0.00327

Question: For C82U A111G A120U A145G C150U U176A, which reverse-splicing fitness is on record?
Answer: 0.00999

Question: Which reverse-splicing fitness does the source give for C82U A111G A120U A145G C150U U176C here?
Answer: 0.0134

Question: Which reverse-splicing fitness does the source give for C82U A111G A120U A145U U176C here?
Answer: 0.0196

Question: For C82U A111G A120U A145U U176A, which reverse-splicing fitness is on record?
Answer: 0.00945

Question: Which reverse-splicing fitness does the source give for C82U A111G A120U A145C C150G here?
Answer: 0.00671

Question: For C82U A111G A120U A145C C150A, which reverse-splicing fitness is on record?
Answer: 0.00504

Question: With C82U A111G A120U A145C C150U as the variant, how does the reverse-splicing fitness read?
Answer: 0.011

Question: With C82U A111G A120G A145U C150G U176C as the variant, how does the reverse-splicing fitness read?
Answer: 0.00779

Question: For C82U A111G A120G A145U C150G U176G, which reverse-splicing fitness is on record?
Answer: 0.00321

Question: With C82U A111G A120G A145U C150G U176A as the variant, how does the reverse-splicing fitness read?
Answer: 0.00535

Question: For C82U A111G A120U A145U C150G U176G, which reverse-splicing fitness is on record?
Answer: 0.00254

Question: Which reverse-splicing fitness does the source give for C82U A111G A120U A145U C150G U176C here?
Answer: 0.00492

Question: With C82U A111G A120U A145U C150G U176A as the variant, how does the reverse-splicing fitness read?
Answer: 0.00344

Question: Which reverse-splicing fitness does the source give for C82U A111G A120U A145C C150G C169A here?
Answer: 0.00238

Question: Which reverse-splicing fitness does the source give for C82U A111G A120U A145C C150G C169G here?
Answer: 0.00252

Question: For C82U A111G A120U A145C C150G C169U, which reverse-splicing fitness is on record?
Answer: 0.00264

Question: Which reverse-splicing fitness does the source give for C82U A111G A120U A145G U176G here?
Answer: 0.00369

Question: With C82U A111G A120U A145G U176C as the variant, how does the reverse-splicing fitness read?
Answer: 0.0172

Question: For C82U A111G A120U A145G U176A, which reverse-splicing fitness is on record?
Answer: 0.0106

Question: Which reverse-splicing fitness does the source give for C82U A111G A120U A145U C150U C169A U176A here?
Answer: 0.00289

Question: With C82U A111G A120U A145U C150U C169A U176G as the variant, how does the reverse-splicing fitness read?
Answer: 0.00165

Question: For C82U A111G A120U A145U C150U C169A U176C, which reverse-splicing fitness is on record?
Answer: 0.0023

Question: With C82U A111G A120U A145G C150G C169A U176C as the variant, how does the reverse-splicing fitness read?
Answer: 0.00712

Question: Which reverse-splicing fitness does the source give for C82U A111G A120U A145G C150G C169A U176A here?
Answer: 0.0084

Question: Which reverse-splicing fitness does the source give for C82U A111G A120U A145G C150G C169A U176G here?
Answer: 0.00326

Question: For C82U A111G A120G A145U U176G, which reverse-splicing fitness is on record?
Answer: 0.00443

Question: For C82U A111G A120G A145U U176A, which reverse-splicing fitness is on record?
Answer: 0.0116

Question: With C82U A111G A120G A145U U176C as the variant, how does the reverse-splicing fitness read?
Answer: 0.0141

Question: With C82U A111G A120U A145C C150A U176A as the variant, how does the reverse-splicing fitness read?
Answer: 0.00269

Question: For C82U A111G A120U A145C C150A U176G, which reverse-splicing fitness is on record?
Answer: 0.002

Question: For C82U A111G A120U A145C C150A U176C, which reverse-splicing fitness is on record?
Answer: 0.00275

Question: Which reverse-splicing fitness does the source give for C82U A111G A120G A145U here?
Answer: 0.0174

Question: Which reverse-splicing fitness does the source give for C82U A111G A120G A145U C150U U176A here?
Answer: 0.00942

Question: For C82U A111G A120G A145U C150U U176G, which reverse-splicing fitness is on record?
Answer: 0.00411

Question: Which reverse-splicing fitness does the source give for C82U A111G A120G A145U C150U U176C here?
Answer: 0.0124

Question: For C82U A111G A120G A145U C150A C169G, which reverse-splicing fitness is on record?
Answer: 0.00754

Question: With C82U A111G A120G A145U C150A C169A as the variant, how does the reverse-splicing fitness read?
Answer: 0.00822

Question: For C82U A111G A120G A145U C150A C169U, which reverse-splicing fitness is on record?
Answer: 0.00646

Question: With C82U A111G A120U A145U C150U C169G U176C as the variant, how does the reverse-splicing fitness read?
Answer: 0.00294

Question: With C82U A111G A120U A145U C150U C169G U176A as the variant, how does the reverse-splicing fitness read?
Answer: 0.0026

Question: With C82U A111G A120U A145U C150U C169G U176G as the variant, how does the reverse-splicing fitness read?
Answer: 0.00172

Question: Which reverse-splicing fitness does the source give for C82U A111G A120G A145U C169G U176A here?
Answer: 0.0112

Question: With C82U A111G A120G A145U C169G U176G as the variant, how does the reverse-splicing fitness read?
Answer: 0.00372

Question: For C82U A111G A120G A145U C169G U176C, which reverse-splicing fitness is on record?
Answer: 0.0118

Question: For C82U A111G A120G A145G U176G, which reverse-splicing fitness is on record?
Answer: 0.00429

Question: For C82U A111G A120G A145G U176C, which reverse-splicing fitness is on record?
Answer: 0.0192

Question: With C82U A111G A120G A145G U176A as the variant, how does the reverse-splicing fitness read?
Answer: 0.0123

Question: Which reverse-splicing fitness does the source give for C82U A111G A120U A145G C150G C169U U176A here?
Answer: 0.00458

Question: For C82U A111G A120U A145G C150G C169U U176C, which reverse-splicing fitness is on record?
Answer: 0.00581

Question: For C82U A111G A120U A145G C150G C169U U176G, which reverse-splicing fitness is on record?
Answer: 0.00292

Question: For C82U A111G A120U A145C C150U C169A U176G, which reverse-splicing fitness is on record?
Answer: 0.00196

Question: With C82U A111G A120U A145C C150U C169A U176C as the variant, how does the reverse-splicing fitness read?
Answer: 0.0021

Question: With C82U A111G A120U A145C C150U C169A U176A as the variant, how does the reverse-splicing fitness read?
Answer: 0.00277

Question: For C82U A111G A120U A145U C150A U176G, which reverse-splicing fitness is on record?
Answer: 0.00212

Question: For C82U A111G A120U A145U C150A U176C, which reverse-splicing fitness is on record?
Answer: 0.00416

Question: With C82U A111G A120U A145U C150A U176A as the variant, how does the reverse-splicing fitness read?
Answer: 0.00427

Question: Which reverse-splicing fitness does the source give for C82U A111G A120U A145U C150G C169G U176A here?
Answer: 0.00235

Question: Which reverse-splicing fitness does the source give for C82U A111G A120U A145U C150G C169G U176G here?
Answer: 0.00175

Question: For C82U A111G A120U A145U C150G C169G U176C, which reverse-splicing fitness is on record?
Answer: 0.00239

Question: With C82U A111G A120U A145C as the variant, how does the reverse-splicing fitness read?
Answer: 0.0379

Question: With C82U A111G A120U A145G as the variant, how does the reverse-splicing fitness read?
Answer: 0.0428

Question: For C82U A111G A120U A145U, which reverse-splicing fitness is on record?
Answer: 0.0429

Question: With C82U A111G A120U A145U C169U as the variant, how does the reverse-splicing fitness read?
Answer: 0.00467

Question: Which reverse-splicing fitness does the source give for C82U A111G A120U A145U C169G here?
Answer: 0.00313

Question: For C82U A111G A120U A145U C169A, which reverse-splicing fitness is on record?
Answer: 0.00249

Question: Which reverse-splicing fitness does the source give for C82U A111G A120U A145C U176G here?
Answer: 0.00339

Question: With C82U A111G A120U A145C U176A as the variant, how does the reverse-splicing fitness read?
Answer: 0.00851

Question: For C82U A111G A120U A145C U176C, which reverse-splicing fitness is on record?
Answer: 0.0117

Question: With C82U A111G A120U A145G C150U C169U U176C as the variant, how does the reverse-splicing fitness read?
Answer: 0.00348

Question: Which reverse-splicing fitness does the source give for C82U A111G A120U A145G C150U C169U U176G here?
Answer: 0.00238

Question: Which reverse-splicing fitness does the source give for C82U A111G A120U A145G C150U C169U U176A here?
Answer: 0.00391

Question: For C82U A111G A120U A145C C150G C169A U176G, which reverse-splicing fitness is on record?
Answer: 0.00209

Question: With C82U A111G A120U A145C C150G C169A U176C as the variant, how does the reverse-splicing fitness read?
Answer: 0.00258

Question: For C82U A111G A120U A145C C150G C169A U176A, which reverse-splicing fitness is on record?
Answer: 0.00187

Question: With C82U A111G A120U A145G C150G as the variant, how does the reverse-splicing fitness read?
Answer: 0.00906

Question: For C82U A111G A120U A145G C150A, which reverse-splicing fitness is on record?
Answer: 0.01

Question: With C82U A111G A120U A145G C150U as the variant, how does the reverse-splicing fitness read?
Answer: 0.0339

Question: For C82U A111G A120G U176G, which reverse-splicing fitness is on record?
Answer: 0.00466

Question: For C82U A111G A120G U176C, which reverse-splicing fitness is on record?
Answer: 0.0144

Question: Which reverse-splicing fitness does the source give for C82U A111G A120G U176A here?
Answer: 0.013

Question: With C82U A111G A120U as the variant, how does the reverse-splicing fitness read?
Answer: 0.0431

Question: Which reverse-splicing fitness does the source give for C82U A111G A120G A145U C150A C169A U176A here?
Answer: 0.013

From the RNAGym collection of RNA variant scans (doi:10.1093/molbev/msab373)
